Experimental data reported in patent publication US11278600B2, “Human alpha-galactosidase variants” (Codexis, Inc., priority 2014, dated 2022).
Where a chain is given by its changes, count along the chain named.

B1: 381 (protein)
chain: LDNGLARTPTMGWLHWERFMCNLDCQEEPDSCISEKLFMEMAERMVSEGWKDAGYEYLCIDDCWMAPQRDSEGRLQADPQRFPHGIRQLANSVHSKGLKLGIYADVGNKTCAGFPGSFGYYDIDAQTFADWGVDLLKFDGCYCDSLENLADGYKHMSLALNRTGRSIVYSCEWPLYMWPFQKPNYTEIRQYCNHWRNFADIDDSWKSIKSILDWTSRNQERIVDVAGPGGWNDPDMLVIGNFGLSWDQQVTQMALWAIMAAPLFMSNDLRHISPQAKALLQDKDVIAINQDPLGKQGYQLRKGDNFEVWERPLSGDAWAVAIINRQEIGGPRSYTIPVASLGKGVACNPACFITQLLPVKRQLGFYNWTSRLKSHINPTGTVLLQLENTMQMSLKDLL
modifications: Synthetic Polypeptide sequence of Variant No. 381 of mature Human GLA
B2: 383 (protein)
chain: B1 chain with S92C
modifications: Synthetic Polypeptide sequence of Variant No. 383 of mature Human GLA
B3: 385 (protein)
chain: B1 chain with S92A
modifications: Synthetic Polypeptide sequence of Variant No. 385 of mature Human GLA
B4: 386 (protein)
chain: B1 chain with S92Y, H94R
modifications: Synthetic Polypeptide sequence of Variant No. 386 of mature Human GLA
B5: 382 (protein)
chain: B1 chain with S92Y, H94N
modifications: Synthetic Polypeptide sequence of Variant No. 382 of mature Human GLA
B6: 384 (protein)
chain: B1 chain with S92V
modifications: Synthetic Polypeptide sequence of Variant No. 384 of mature Human GLA

What was measured:
Assay type in all cases: biochemical
[1] = HTP-analysis of yeast culture supernatants, no challenge (MUGal hydrolysis); conditions: activity of the variant/activity of Rd4BB (SEQ ID NO: 15)
In short: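 GLA variants expressed in yeast INVSc1, secreted into SD-Ura broth over 66-84 h at 30° C; clarified supernatants tested without challenge. Supernatant mixed with McIlvaine buffer pH 4.8 and 2 mM MUGal (citrate/KCl, pH 4.6), 37° C for 30-180 min, carbonate-quenched, fluorescence Ex 355/Em 448 nm.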

[2] = HTP-analysis of supernatants pretreated with acid (MUGal hydrolysis); conditions: activity of the variant/activity of Rd4BB (SEQ ID NO: 15); challenge at pH 3.7
In short: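 MUGal hydrolysis was tracked by fluorescence (Ex 355 nm, Em 448 nm) after a 30-180 min reaction at 37° C. in pH 4.8 McIlvaine/citrate buffer, stopped with 1 M sodium carbonate. Beforehand, yeast (INVSc1) culture supernatants carrying GLA variants were held 1-3 h at 37° C. in acidic McIlvaine buffer, pH 3.3-4.3.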

[3] = HTP-analysis of supernatants pretreated with base (MUGal hydrolysis); conditions: activity of the variant/activity of Rd4BB (SEQ ID NO: 15); challenge at pH 9.65
In short: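 GLA variants secreted from yeast INVSc1; culture supernatants pre-incubated with McIlvaine buffer pH 7.0–8.2 or 200 mM bicarbonate pH 9.1–9.7 at 37° C. for 1–18 h. Residual activity: MUGal (4 mM stock) hydrolysis at pH 4.3–4.8, 37° C., 30–180 min, carbonate quench; fluorescence Ex 355/Em 448 nm.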

| Molecule | Relative Activity of GLA Variants After No Challenge (NC) [1] | Relative Activity of GLA Variants After Challenge at pH 3.7 [2] | Relative Activity of GLA Variants After Challenge at pH 9.65 [3] |
| --- | --- | --- | --- |
| B1 | + (0.5 to 1.5 relative activity over Rd4BB (SEQ ID NO: 15)) | + (0.5 to 1.5 relative activity over Rd4BB (SEQ ID NO: 15)) | − (<0.5 relative activity over Rd4BB (SEQ ID NO: 15)) |
| B2 | + (0.5 to 1.5 relative activity over Rd4BB (SEQ ID NO: 15)) | − (<0.5 relative activity over Rd4BB (SEQ ID NO: 15)) | − (<0.5 relative activity over Rd4BB (SEQ ID NO: 15)) |
| B3 | + (0.5 to 1.5 relative activity over Rd4BB (SEQ ID NO: 15)) | + (0.5 to 1.5 relative activity over Rd4BB (SEQ ID NO: 15)) | − (<0.5 relative activity over Rd4BB (SEQ ID NO: 15)) |
| B4 | − (<0.5 relative activity over Rd4BB (SEQ ID NO: 15)) | + (0.5 to 1.5 relative activity over Rd4BB (SEQ ID NO: 15)) | − (<0.5 relative activity over Rd4BB (SEQ ID NO: 15)) |
| B5 | − (<0.5 relative activity over Rd4BB (SEQ ID NO: 15)) | − (<0.5 relative activity over Rd4BB (SEQ ID NO: 15)) | − (<0.5 relative activity over Rd4BB (SEQ ID NO: 15)) |
| B6 | + (0.5 to 1.5 relative activity over Rd4BB (SEQ ID NO: 15)) | + (0.5 to 1.5 relative activity over Rd4BB (SEQ ID NO: 15)) | − (<0.5 relative activity over Rd4BB (SEQ ID NO: 15)) |
